Laboratory results taken from the DeepSol protein solubility set.

experiment: soluble on expression in E. coli; label from the status in PepcDB or PDB records

Row | Sequence | soluble on expression in E. coli
1 | MSDPAGNRPKTEKELKKEAEKAAKLAKFEEKQKKLAEKKAAASDKPVKEAKAKKEQTVEAAEPVDQTPTGQRKKIDGEIPAAYFPGYVESGWYSWWEKEGFFKPEYIDKLNPGSNPADSFTVCIPPPNVTGNLHVGHALATTVEDTITRFNRMHGKRTLFNPGCDHAGIATQVVVEKRLKRERGLTRHDLGRDRFNQEVWHWKNEKGDVIYDQFRKLGASVDWDRAVFTMDPKMCRAVTEAFIRMHESGTIYRSNRLVNWSCALRSAISDIEVDKKELTGSTLIAVPGYDKKIEFGVLNSFAYKIQGSDEEIVVSTTRIETMLGDSGVAVHPDDQRYKHLVGKQCIHPFIPTRNLPIFADSFVEMEFGTGAVKITPAHDHNDYEVGIRQNLPFHNCITDDGLISQGCGEFSGMKRFDARTAVIEALKEKGLYRGKEDNPMVVPTCSRSKDVIEPILKPQWYVKCAHMAEKAVAAVANGDLQIIPEFHKATWNRWLESSRDWCISRQLWWGHRIPAYYISFADGREQPLPEENYWVSARTEQEALAKAAQKFQVPEAEILLKWDEDVLDTWFSSGMWPFAVFGWPDATKDMDLFFPGAVLETGHDILFFWVARMVFMAQELTGKLPFKEILLHAMIRDAHGRKMSKSLGNVIDPLDVIRGISLNDLQAQLLGGNLDEKEIAVAKEGQARDYPDGIPECGVDALRFALLSYTSQGRDINLDVLRVHGYRKFCNKLWQVVRFALARISDKPEQKPTFEINLKSATPTDLWILSRLAKAVKETNEALKAYNFTQATTVTYNFWLYDFCDVYVETIKPVLYGDNTTLRQVAISVLHKCIDTGLRLISPLMPFISEELWQRMPRLDDSDYTSPSIIVAQYPLTQKYEKYQNEKLEAAFEFAQELIGKVRSLRADYDLKKTKITMQILSETPEDESMLNDISAVITTLTFSEKVSILNKCESDKIEKGSAHIACGGRCQVYINLTGIIDVPKEIEKLGAKLQKNQISVKKIGDIQSSADYEQKVPVDIRALDQEKKATLEKEIENITAAIAQLKALN | not soluble
2 | MSDPAIAVLPYGMKLGPALSGLPLDQVNWPLGCPERLVGKTLGDLGAGDHLLVYPRTGTHFQLSRGTRARISLIMAEPAVIHAKHYALLRVTWRRFHRVLTFNQAAVDRLPNARLLLFGSTWVPEWQSLTPEKVAQCSLIASAKRDSTGHKLRHAVVDWVRASDQDVAVLGRGYQPFDSKADGLAPYRYSVVIENVQERNYFSEKLLDAVFCETVPIYWGCPNIADFVDTTAMILCTREEDIRRAVAEMSAEDYAARLPALRALKQQLAPYAAHEARAARMILDELLEHHHHHH | soluble
3 | MSDQEDKEVPDVEVDYSKYDEDSVPIPEKDIEESHPGRPDLDYDETPVGPAPTECTEEKND | not soluble
4 | MSDQPIVLTSFYPKEGGARDKILLDGKNFGTDVSKIKVYFNNARASVVSSSGSRIYAIVPRLPGDNPRISVVVDTDSVAYEETYAYHTQALVSTVTGNGETSFLAGTLSTAQVYGKYLDLDAEGNLFMSWRDGGTFGIARINEQQNIVTPLIEADAANRILYANGLTVDRATGMLTAAHESVKEVTFTFDPREAWYPRQRNIKYSQSDLNSIVDADRYKNFVTFCPYDGYLYTRYRDGKIAKIDPNTFEGHIIHQGPSGSQYGQAINPAKPWLLYITLHSNAPTAYRQGISVLDLRDPDGTGGFKRLNAPGGSAFRDGPIEDALFNYPKDIKFDNDGNMFVADYGNHCIRMISADNIVTTVAGQPGVAGYKDGGPVESLFKNPWGVAVNEQGDIYIADWGNARIRKLVIELEHHHHHH | soluble
5 | MSDRHFDELATRFAEKIYGGAKGAIRLAVLQADLAEALPERPLRVLDIGAGLGHMSLWLAARGHRVTLAEPAQPMLDGARQRFAEAGQAAEFIQAPWQELLGQLTEPYDLVLCHAVLEWLAEPHAILPVLHQLCAPGGWLSLAFYNRDALIYRNLLKGHFRKLRKERFAGEGQSLTPQRPLDPRELEQALAARWRIEARSGVRVFHDYMPSEFQAKAERLDLVEMELAYRRHPAFAGLGRYLHWLCRPQ | not soluble
